The results in this text go back to publication PMC11291303.

In assay [1] the target is turnip mosaic virus (TuMV) isolate YC5 VPg D113G (turnip mosaic virus isolate YC5). In words: two-hybrid.
For assay [2], the target named is turnip mosaic virus (TuMV) isolate YC5 VPg R118H (turnip mosaic virus isolate YC5). In words: two-hybrid.

As to “ROS1-ASSOCIATED HOMEODOMAIN PROTEIN 1 (RHD1) (natural protein)”, in assay [1], the percent decrease in binding affinity compared to VPg^wt turned out to be 22.6%. The substance further showed a percent increase in binding affinity compared to VPg^wt in assay [2] of 17.4%. In turn, “MITOCHONDRIAL GLYCOPROTEIN FAMILY PROTEIN (AT1G15870) (natural protein)” yielded a percent stronger binding than VPg^wt in assay [2] of 36.2%. Turning to “FRUCTOKINASE-LIKE 1 (FLN1) protein (natural protein)”, the percent weaker interaction than with VPg^wt in assay [1] and in assay [2] was 36.5% throughout. As to “MYOSIN 3 (MYOS3) protein (natural protein)”, the percent stronger binding than VPg^wt in assay [2] stood at 27.5%.

“eukaryotic translation initiation factor (iso)4E (natural protein)”: the percent weaker interaction than with VPg^wt in assay [1] and in assay [2] was 90.5% each time. In assay [2], “PROLINE RICH MITOTIC CHECKPOINT CONTROL FACTOR (PRCC) (natural protein)” returned a percent stronger binding than VPg^wt of 22.5%.

In assay [1], “ARM-REPEAT SU… PROTEIN (AT5G62580) (natural protein)” registered a percent reduction in binding strength compared to VPg^wt of 28.8%. In assay [2], “PYRUVATE ORTHOPHOSPHATE DIKINASE (PPDK) REGULATORY PROTEIN 1 (RP1) (natural protein)” registered a percent stronger binding than VPg^wt of 47.1%.
